Results published in US8357523B2, “Beta-glucosidase variant enzymes and related polynucleotides” (Codexis, Inc., priority 2009, dated 2013).

B1: 7 (protein)
chain: STAIAQEGAAPAAILHPEKWPRPATQRLIDPAVEKRVDALLKQLSVEEKVGQVIQGDIGTITPEDLRKYPLGSILAGGNSGPNGDDRAPPKEWLDLADAFYRVSLEKRPGHTPIPVLFGIDAVHGHGNIGSATIFPHNIALGATHDPELLRRIGEVTAVEMAATGIDWTFAPALSVVRDDRWGRTYEGFSEDPEIVAAYSAAIVEGVQGKYGSKDFMAPGRIVASAKHFLADGGTDQGRDQGDARISEDELIRIHNAGYPPAIDAGVLTVMASFSSWQGIKHHGHKQLLTDVLKGQMGFNGFIVGDWNAHDQVPGCTKFNCPTSLIAGLDMYMAADSWKQLYENTLAQVKDGTIPMARLDDAVRRILRVKVLAGLFEKPAPKDRPGLPGLETLGSPEHRAVGREAVRKSLVLLKNDKGTLPLSPKARVLVAGDGADNIGKQSGGWTISWQGTGNRNDEFPGATSILGGIRDAVADAGGSVEFDVAGQYKTKPDVAIVVFGEEPYAEFQGDVETLEYQPDQKQDLALLKKLKDQGIPVVAVFLSGRPMWVNPELNASDAFVAAWLPGTEGGGVADVLFTDKAGKVQHDFAGKLSYSWPRTAAQTTVNRGDADYNPLFAYGYGLTYKDKSKVGTLPEESGVPAEARQNAGIYFRAGALRLPGRFL
B2: 8 (protein)
chain: STAIAQEGAAPAAILHPEKWPRPATQRLIDPAVEKRVDALLKQLSVEEKVGQVIQGDIGTITPEDLRKYPLGSILAGGNSGPNGDDRAPPKEWLDLADAFYRVSLEKRPGHTPIPVLFGIDAVHGHGNIGSATIFPHNIALGATHDPELLRRIGEVTAVEMTATGIDWTFAPALSVVRDDRWGRTYEGFSEDPEIVAAYSAAIVEGVQGKFGSKDFMAPGRIVASAKHFLADGGTDQGRDQGDARISEDELIRIHNAGYPPAIDAGVLTVMASFSSWQGIKHHGHKQLLTDVLKGQMGFNGFIVGDWNAHDQVPGCTKFNCPTSLIAGLDMYMAADSWKQLYENTLAQVKDGTIPMARLDDAVRRILRVKVLAGLFEKPAPKDRPGLPGLETLGSPEHRAVGREAVRKSLVLLKNDKGTLPLSPKARVLVAGDGADNIGKQSGGWTISWQGTGNRNDEFPGATSILGGIRDAVADAGGSVEFDVAGQYKTKPDVAIVVFGEEPYAEFQGDVETLEYQPDQKQDLALLKKLKDQGIPVVAVFLSGRPMWVNPELNASDAFVAAWLPGTEGGGVADVLFTDKAGKVQHDFAGKLSYSWPRTAAQTTVNRGDADYNPLFAYGYGLTYKDKSKVGTLPEESGVPAEARQNAGIYFRAGALRLPGRFL
B3: 11 (protein)
chain: STAIAQEGAAPAAILHPEKWPRPATQRLIDPAVEKRVDALLKQLSVEEKVGQVIQGDIGTITPEDLRKYPLGSILAGGNSGPNGDDRAPPKEWLDLADAFYRVSLEKRPGHTPIPVLFGIDAVHGHGNIGSATIFPHNIALGATHDPELLRRIGEVTALEMAATGIDWTFAPALSVVRDDRWGRTYEGFSEDPEIVAAYSAAIVEGVQGKFGSKDFMAPGRIVASAKHFLADGGTDQGRDQGDARISEDELIRIHNAGYPPAIDAGVLTVMASFSSWQGIKHHGHKQLLTDVLKGQMGFNGFIVGDWNAHDQVPGCTKFNCPTSLIAGLDMYMAADSWKQLYENTLAQVKDGTIPMARLDDAVRRILRVKVLAGLFEKPAPKDRPGLPGLETLGSPEHRAVGREAVRKSLVLLKNDKGTLPLSPKARVLVAGDGADNIGKQSGGWTISWQGTGNRNDEFPGATSILGGIRDAVADAGGSVEFDVAGQYKTKPDVAIVVFGEEPYAEFQGDVETLEYQPDQKQDLALLKKLKDQGIPVVAVFLSGRPMWVNPELNASDAFVAAWLPGTEGGGVADVLFTDKAGKVQHDFAGKLSYSWPRTAAQTTVNRGDADYNPLFAYGYGLTYKDKSKVGTLPEESGVPAEARQNAGIYFRAGALRLPGRFL
B4: 9 (protein)
chain: STAIAQEGAAPAAILHPEKWPRPATQRLIDPAVEKRVDALLKQLSVEEKVGQVIQGDIGTITPEDLRKYPLGSILAGGNSGPNGDDRAPPKEWLDLADAFYRVSLEKRPGHTPIPVLFGIDAVHGHGNIGSATIFPHNIALGATHDPELLRRIGEVTAVEMAATGIDWTFAPALSVVRDDRWGRTYEGFSEDPEIVAAYSGAIVEGVQGKFGSKDFMAPGRIVASAKHFLADGGTDQGRDQGDARISEDELIRIHNAGYPPAIDAGVLTVMASFSSWQGIKHHGHKQLLTDVLKGQMGFNGFIVGDWNAHDQVPGCTKFNCPTSLIAGLDMYMAADSWKQLYENTLAQVKDGTIPMARLDDAVRRILRVKVLAGLFEKPAPKDRPGLPGLETLGSPEHRAVGREAVRKSLVLLKNDKGTLPLSPKARVLVAGDGADNIGKQSGGWTISWQGTGNRNDEFPGATSILGGIRDAVADAGGSVEFDVAGQYKTKPDVAIVVFGEEPYAEFQGDVETLEYQPDQKQDLALLKKLKDQGIPVVAVFLSGRPMWVNPELNASDAFVAAWLPGTEGGGVADVLFTDKAGKVQHDFAGKLSYSWPRTAAQTTVNRGDADYNPLFAYGYGLTYKDKSKVGTLPEESGVPAEARQNAGIYFRAGALRLPGRFL
B5: 10 (protein)
chain: STAIAQEGAAPAAILHPEKWPRPATQRLIDPAVEKRVDALLKQLSVEEKVGQVIQGDIGTITPEDLRKYPLGSILAGGNSGPNGDDRAPPKEWLDLADAFYRVSLEKRPGHTPIPVLFGIDAVHGHGNIGSATIFPHNIALGATHDPELLRRIGEVTAVEMAATGIDWTFAPALSVVRDDRWGRTYEGFSEDPEIVAMYSAAIVEGVQGKFGSKDFMAPGRIVASAKHFLADGGTDQGRDQGDARISEDELIRIHNAGYPPAIDAGVLTVMASFSSWQGIKHHGHKQLLTDVLKGQMGFNGFIVGDWNAHDQVPGCTKFNCPTSLIAGLDMYMAADSWKQLYENTLAQVKDGTIPMARLDDAVRRILRVKVLAGLFEKPAPKDRPGLPGLETLGSPEHRAVGREAVRKSLVLLKNDKGTLPLSPKARVLVAGDGADNIGKQSGGWTISWQGTGNRNDEFPGATSILGGIRDAVADAGGSVEFDVAGQYKTKPDVAIVVFGEEPYAEFQGDVETLEYQPDQKQDLALLKKLKDQGIPVVAVFLSGRPMWVNPELNASDAFVAAWLPGTEGGGVADVLFTDKAGKVQHDFAGKLSYSWPRTAAQTTVNRGDADYNPLFAYGYGLTYKDKSKVGTLPEESGVPAEARQNAGIYFRAGALRLPGRFL
B6: 12 (protein)
chain: STAIAQEGAAPAAILHPEKWPRPATQRLIDPAVEKRVDALLKQLSVEEKVGQVIQGDIGTITPEDLRKYPLGSILAGGNSGPNGDDRAPPKEWLDLADAFYRVSLEKRPGHTPIPVLFGIDAVHGHGNIGSATIFPHNIALGATHDPELLRRIGEVTAVEMAATGIDWTFAPALSVVRDDRWGRTYEGFSEDPEIVAAYSANIVEGVQGKFGSKDFMAPGRIVASAKHFLADGGTDQGRDQGDARISEDELIRIHNAGYPPAIDAGVLTVMASFSSWQGIKHHGHKQLLTDVLKGQMGFNGFIVGDWNAHDQVPGCTKFNCPTSLIAGLDMYMAADSWKQLYENTLAQVKDGTIPMARLDDAVRRILRVKVLAGLFEKPAPKDRPGLPGLETLGSPEHRAVGREAVRKSLVLLKNDKGTLPLSPKARVLVAGDGADNIGKQSGGWTISWQGTGNRNDEFPGATSILGGIRDAVADAGGSVEFDVAGQYKTKPDVAIVVFGEEPYAEFQGDVETLEYQPDQKQDLALLKKLKDQGIPVVAVFLSGRPMWVNPELNASDAFVAAWLPGTEGGGVADVLFTDKAGKVQHDFAGKLSYSWPRTAAQTTVNRGDADYNPLFAYGYGLTYKDKSKVGTLPEESGVPAEARQNAGIYFRAGALRLPGRFL

Assay: High throughput cellobiose assay: fold improvement in cellobiase activity of CelA variants over a control enzyme (Tables 2A-2D, 3, 5, 6, 7)
Type: biochemical
Settings: 3.3 g/l cellobiose, 50° C. and pH 6.5; compared to native CelA (SEQ ID NO: 4)
Procedure: β-glucosidase activity was also determined using a cellobiose assay, which used cellobiose as substrate. In a total volume of 100 μL, 25 μL clear media supernatant containing CelA enzyme was added to 10 g/L cellobiose (Fluka Cat. No. 22150, Sigma-Aldrich, Inc., St. Louis, Mo.) in 100 mM sodium phosphate buffer (pH 6-7) or sodium acetate buffer (pH 5-5.5). The reaction was incubated at 45-70° C. for an appropriate time (25 minutes to overnight depending on the enzyme concentration) while shaking. Glucose production was determined using an enzymatic glucose assay (K-GLUC, Megazyme, Ireland). 10 μl of each reaction was added to 190 μl GOPOD reagent (supplied as part of the K-GLUC assay kit). The reaction was incubated at 45° C. for 20 minutes and the absorbance of the solution was measured at 510 nm. The GOPOD reagent contains 50 mM Potassium phosphate buffer pH7.4, 0.011M p-hydroxybenzoic acid, 0.008% w/v sodium azide, glucose oxidase (>12,000 U/L), peroxidase (>650 U/L) and 80 mg/L 4-aminoantipyrine. The glucose oxidase enzyme in the reagent reacts with any glucose present in the sample and produces hydrogen peroxide which then reacts with the 4-aminoantipyrine to produce a quinoneimine dye in quantities proportionate with the amount of glucose present and can be measured spectrophotometrically at 510 nm. Detectable β-glucosidase activity was observed under high throughput screening conditions (i.e., pH 7, 50° C.).
Plasmid libraries containing variant CelA genes were transformed into B. megaterium and plated on Luria-Bertani (LB) agar plates containing 3 μg/mL tetracycline with a DM3 regeneration media overlay (400 mM sodium succinate dibasic, pH 7.3, 0.5% casamino acids, 0.5% yeast extract, 0.4% K2HPO4, 0.2% KH2PO4, 20 mM MgCl2, 0.5% glucose and 0.2% BSA). After incubation for at least 18 hours at 30° C., colonies were picked using a Q-bot® robotic colony picker (Genetix USA, Inc., Beaverton, Oreg.) into shallow, 96-well well microtiter plates containing 180 μL, LB and 10 μg/mL tetracycline. Cells were grown overnight at 37° C. with shaking at 200 rpm and 85% humidity. 10 μL of this culture was then transferred into 96-well microtiter plates (deep well) containing 390 μL A5-glucose-xylose medium and 10 μg/mL tetracycline as described in example 2. The plates were then incubated at 37° C. with shaking at 250 rpm and 85% humidity overnight (˜18-24 hours). The deep plates were centrifuged at 4000 rpm for 15 minutes and the clear media supernatant containing the secreted CelA enzyme was used for the high throughput pNPG or cellobiose assay of Example 5.
The CelA libraries were screened in high throughput using the cellobiose assay of Example 5 (Substrate: cellobiose; pH: 5-7; temperature: 45-72° C.; time: 2-24 hrs) for the identification of improved variants.
In shallow, 96-well microtiter plates 25 μL of media supernatant was added to 75 μL of […] cellobiose in 150 mM sodium acetate buffer pH 5-5.5 or 150 mM sodium phosphate buffer pH6-7. After sealing with aluminum/polypropylene laminate heat seal tape (Velocity 11 (Menlo Park, Calif.), Cat#06643-001), the plates were shaken at 45-65° C. for up to 24 hrs. The plates were centrifuged for 5 minutes at 4000 rpm. In shallow well clear microtiter plates, 10 μL of the reaction mixture was added to 190 μL of GOPOD reagent (as in example 5B) per well. The solutions were incubated at 45° C. for 1 hour and absorbance was measured at 510 nm for the identification of active CelA variants.
Improved CelA variants were identified from the high throughput screening of various CelA variant libraries as described in Example 7, using the cellobiose assay of Example 5 using 3.3 g/l cellobiose at temperatures from 50°-55° C. at a pH in the range of 5.3-6.5. Tables 2A, 2B, 2C, and 2D and Table 3 depict the improvement in activities of CelA variants encompassed by the invention. The assay conditions are indicated in each table. […]

| Molecule | Fold improvement over wildtype CelA |
| --- | --- |
| B1 | ++ (++ = 2.1 to 2.6 fold improvement over native CelA (SEQ ID NO: 4)) |
| B2 | + (+ = 1.1 to 2.0 fold improvement over native CelA (SEQ ID NO: 4)) |
| B3 | + (+ = 1.1 to 2.0 fold improvement over native CelA (SEQ ID NO: 4)) |
| B4 | + (+ = 1.1 to 2.0 fold improvement over native CelA (SEQ ID NO: 4)) |
| B5 | + (+ = 1.1 to 2.0 fold improvement over native CelA (SEQ ID NO: 4)) |
| B6 | + (+ = 1.1 to 2.0 fold improvement over native CelA (SEQ ID NO: 4)) |
